# B1: Lactoferrin (protein, UniProt P02788 20-710, looked up)
# Lactotransferrin: GRRRSVQWCAVSQPEATKCFQWQRNMRKVRGPPVSCIKRDSPIQCIQAIAENRADAVTLDGGFIYEAGLAPYKLRPVAAEVYGTERQPRTHYYAVAVVKKGGSFQLNELQGLKSCHTGLRRTAGWNVPIGTLRPFLNWTGPPEPIEAAVARFFSASCVPGADKGQFPNLCRLCAGTGENKCAFSSQEPYFSYSGAFKCLRDGAGDVAFIRESTVFEDLSDEAERDEYELLCPDNTRKPVDKFKDCHLARVPSHAVVARSVNGKEDAIWNLLRQAQEKFGKDKSPKFQLFGSPSGQKDLLFKDSAIGFSRVPPRIDSGLYLGSGYFTAIQNLRKSEEEVAARRARVVWCAVGEQELRKCNQWSGLSEGSVTCSSASTTEDCIALVLKGEADAMSLDGGYVYTAGKCGLVPVLAENYKSQQSSDPDPNCVDRPVEGYLAVAVVRRSDTSLTWNSVKGKKSCHTAVDRTAGWNIPMGLLFNQTGSCKFDEYFSQSCAPGSDPRSNLCALCIGDEQGENKCVPNSNERYYGYTGAFRCLAENAGDVAFVKDVTVLQNTDGNNNEAWAKDLKLADFALLCLDGKRKPVTEARSCHLAMAPNHAVVSRMDKVERLKQVLLHQQAKFGRNGSDCPDKFCLFQSETKNLLFNDNTECLARLHGKTTYEKYLGPQYVAGITNLKKCSTSPLLEACEFLRK
# notes: transferrin; known collagen contractor
# Key:
# [1] = tested on: Normal human dermal fibroblasts (NHDFs) seeded on collagen type 1 gels; test: Fibroblast-seeded collagen gel contraction; assay type: cell-based; conditions: monitored for a further 3 days
# [2] = tested on: Normal human dermal fibroblasts (NHDFs) seeded on collagen type 1 gels; test: Fibroblast-seeded collagen gel contraction; assay type: cell-based; conditions: 0.1 mg/ml lactoferrin, 0.1 mg/ml ICI 118 551, 1.0 mg/ml Isoproterenol, 3.5×10^4 cells per well
# Procedure: Normal human dermal fibroblasts (NHDFs) were obtained by tissue donation following circumcision following patient informed consent. The tissue was rinsed in Phosphate Buffered Saline (PBS) and Pen/Strep and Amphotericin B (Pen/strep) at 10 ug/ml. The tissue was then minced to 1 mm2 sections and suspended in Trypsin-EDTA 1:250 at room temperature (RT) for 1 hr. The tissue was then washed twice by centrifugation at 2500 g for 3min in serum supplemented DMEM/F12. A single cell suspension was created using mechanical disaggregation. The cells were counted using a haemocytometer and cultured at 1×10^6 cells per T75 tissue culture flask in DMEM/F12 containing 10% Fetal Bovine Serum (FBS) and 10 ug/ml Pen/strep. Incubators were kept at 37° C. and 5% CO2. Medium was changed every 3-4 days and cells were used from the 4th passage in vitro.
# Collagen gels were formed. A solution of collagen, consisting of 2 mg/ml type 1 bovine collagen from bovine Achilles tendon in 0.5M acetic acid, was made. This made up 80% of the gel. Another 10% was made up of 10×PBS and the remaining volume was made up of FBS. The pH of the entire solution was adjusted to 7.4 using NaOH. 400 μl of the solution was placed into each well of a 24 well plate. The gels were set at 37° C. for 1 hr. After ensuring that the gels were set properly, they were detached from the sides of the wells and exposed to 1 ml fully supplemented DMEM/F12 overnight to acclimatize. The complete gels were seeded with 3.5×10^4 cells per well and the test compounds were added at this point. The test compound were added as follows: 0.1 mg/ml lactoferrin, 0.1 mg/ml ICI 118 551, 1.0 mg/ml Isoproterenol. A cell only and no cell control were also incuded.
# Photographs were taken from the same distance at 0, 3, 6, 12 and 24 hrs of exposure using a Canon Powershot A640 10MP camera. The photos were transferred to CorelDRAW X3 and the inside diameter of the well as well as the outer edge of the gel were measured using the circle tool. […] These two diameters were then converted to a percentage of the well diameter by the formula geloutside/wellinside×100=gelrelative. This value was then worked out the same way for each gel at every time period. The time period Ohrs taken to be 100% of gel size and each time period after that was compared to it as a relative percentage. The standard deviation was calculated based on the original relative percentage to the well.
molecule,measurement,setting,value
B1,return of gels to original dimensions,[1],did not return to their original dimensions
same,% of original size (mean),[2]; 0 hrs (taken to be 100% of gel size),100%
same,% of original size (mean),[2]; 3 hrs,92.62%
same,% of original size (mean),[2]; 6 hrs,64.48%
same,% of original size (mean),[2]; 12 hrs,54.71%
same,% of original size (mean),[2]; 24 hrs,49.73%
